The results in this text go back to patent publication US9273095B2, “Antibiotic peptide and preparation method therefor and application therefor” (priority 2011, dated 2016).

Data set [1] in a line: Circular dichroism (CD) spectroscopy, helical structure. Format: physicochemical. The following applies: 50% trifluoroethanol (TFE), 5° C.
The nature of data set [2]: RP-HPLC temperature profiling: hydrophobicity and self-association. Format: physicochemical. The procedure: Peptides are analyzed on an Agilent 1200 series liquid chromatograph (Little Falls, Del.). Runs are performed on a Zorbax 300 SB-C8 column (150×4.6 mm I.D.; 5 μm particle size, 300 Å pore size) from Agilent Technologies using linear AB gradient (1% acetonitrile/min) and a flow rate of 1 ml/min, where solvent A is 0.05% aqueous TFA, pH 2 and solvent B is 0.05% TFA in acetonitrile.
We further use temperature profiling during RP-HPLC to determine the self-association ability of various analogs of PL-13 (SEQ ID NO: 1) which would occur through interaction of the non-polar faces of these amphipathic peptides α-helices. We use 50% TFE aqueous acetonitrile and hydrophobic conditions in the reversed-phase column (hydrophobic stationary phase and the hydrophobic organic solvent in the mobile phase) since the hydrophobic environment of a reversed-phase column also could induce α-helical structure. Since its introduction, the technique of RP-HPLC temperature profiling has been applied on several types of molecules, including cyclic β-sheet peptides, monomeric α-helices and α-helices that dimerize, as well as α-helices that dimerize to form coiled-coils. Although peptides are eluted from a reversed-phase column mainly by an adsorption/desorption mechanism, even a peptide strongly bound to a hydrophobic stationary phase will partition between the matrix and the mobile phase when the acetonitrile content becomes high enough during gradient elution. In summary, the mechanism is based on four assumptions: (i) at low temperature, just as an amphipathic α-helical peptide is able to dimerize in aqueous solution (through its hydrophobic, non-polar face), it will dimerize in solution during partitioning in reversed-phase chromatography; (ii) at higher temperatures, the monomer-dimer equilibrium favors the monomer as the dimer is disrupted; (iii) at sufficiently high temperatures, only monomer is present in solution; and (iv) peptide is always bound in its monomeric helical form to the hydrophobic stationary phase, i.e., the dimer can only be present in solution and disruption of the dimer is required for rebinding to the RP-HPLC matrix.
([θ]222=−3,950). Since peptide C is a monomeric random coil peptide in both aqueous and hydrophobic media, its retention behavior over the temperature range 5-80° C. represents only general temperature effects on peptide retention behavior, i.e., a linear decrease in peptide retention time with increasing temperature due to greater solute diffusivity and enhanced mass transfer between the stationary and mobile phases at higher temperatures. Thus, after normalization to the retention times of peptide C, the retention behavior of the peptides only represents peptide self-association ability. Note that the higher the PA value, the greater the self-association ability. The order of peptide self-association ability of the three pairs of peptide enantiomers is identical to the order of peptide hydrophobicity. Apart from the decrease in retention time due to the general temperature effects noted above, destruction of the α-helix will also occur with increasing temperature, resulting in reduced retention times as the peptides become increasingly random coils.
The retention time data for the peptides is shown in Table 6 which records retention times at 5° C., the maximal retention times and retention times at 80° C. during the temperature profiling. Temperatures of 5-80° C. are the lower and upper temperature limits of temperature profiling in RP-HPLC, representing polymerization of the peptides at 5° C. and the monomerization of peptides at 80° C. due to denaturation of peptides by high temperature and dissociation of the polymers. The maximal retention times represent the threshold points at which peptides totally transform from polymeric to monomeric form. […]

With “Ac-ELEKGGLEGEKGGKELEK-amide (Ac-ELEKGGLEGEKGGKELEK-NH2) [reference compound]”, in data set [1], the “[θ]222” value is −3,950. Moreover, in data set [2] (RP-HPLC temperature profiling, 5° C.), the “tR(min) 5° C.” value stood at 22.56 min. In data set [2] (RP-HPLC temperature profiling, 80° C.), the “tR(min) 80° C.” value was found to be 19.91 min. For the same substance, in data set [2] (maximal retention time during temperature profiling 5-80° C.), the “tR(min) Max” value stood at 22.56 min.
